The source of these data is US20110318339A1.

In experiment [1] the target is recombinant mouse DLL4 (Cat# 1389-D4-050/CF, R&D Systems) (mouse) (UniProt Q9JI71). The experiment in a line: ELISA, mDLL4 coated 0.5 ng/ul, Fab 100.00 nM.
Experiment [2] shares this target. The experiment in a line: ELISA, mDLL4 coated 0.5 ng/ul, Fab […].
For experiment [3] the target is unchanged. The experiment in a line: ELISA, mDLL4 coated 0.5 ng/ul, Fab 50.00 nM.
The target is the same in experiment [4]. The experiment in a line: ELISA, mDLL4 coated 0.5 ng/ul, Fab 25.00 nM.
Experiment [5] shares this target. Nature of the experiment: ELISA, mDLL4 coated 0.5 ng/ul, Fab 0.78 nM.
For experiment [6] the target is unchanged. Nature of the experiment: ELISA, mDLL4 coated 0.5 ng/ul, Fab 6.25 nM.
The target is the same in experiment [7]. Nature of the experiment: ELISA, mDLL4 coated 0.5 ng/ul, Fab 12.50 nM.
Experiment [8] has as its target recombinant human DLL4 (Cat# 1506-D4/CF, R&D Systems) (human) (UniProt Q9NR61). The experiment in a line: ELISA, DLL4 coated, Fab 100 nM.
The target is the same in experiment [9]. The experiment in a line: ELISA, DLL4 coated, Fab 12.5 nM.
Experiment [10] shares this target. The experiment in a line: ELISA, DLL4 coated, Fab 25 nM.
Experiment [11] has the same target. The experiment in a line: ELISA, DLL4 coated, Fab 50 nM.
For experiment [12] the target is unchanged. The experiment in a line: ELISA, DLL4 coated, Fab 0.74 nM.
Experiment [13] shares this target. The experiment in a line: ELISA, DLL4 coated, Fab 20 nM.
For experiment [14] the target is unchanged. The experiment in a line: ELISA, DLL4 coated, Fab 2.22 nM.
Experiment [15] shares this target. Nature of the experiment: ELISA, DLL4 coated, Fab […].

recombinant mouse DLL4 (Cat# 1389-D4-050/CF, R&D Systems) (mouse), sequence (Q9JI71 28-525 limits assumed): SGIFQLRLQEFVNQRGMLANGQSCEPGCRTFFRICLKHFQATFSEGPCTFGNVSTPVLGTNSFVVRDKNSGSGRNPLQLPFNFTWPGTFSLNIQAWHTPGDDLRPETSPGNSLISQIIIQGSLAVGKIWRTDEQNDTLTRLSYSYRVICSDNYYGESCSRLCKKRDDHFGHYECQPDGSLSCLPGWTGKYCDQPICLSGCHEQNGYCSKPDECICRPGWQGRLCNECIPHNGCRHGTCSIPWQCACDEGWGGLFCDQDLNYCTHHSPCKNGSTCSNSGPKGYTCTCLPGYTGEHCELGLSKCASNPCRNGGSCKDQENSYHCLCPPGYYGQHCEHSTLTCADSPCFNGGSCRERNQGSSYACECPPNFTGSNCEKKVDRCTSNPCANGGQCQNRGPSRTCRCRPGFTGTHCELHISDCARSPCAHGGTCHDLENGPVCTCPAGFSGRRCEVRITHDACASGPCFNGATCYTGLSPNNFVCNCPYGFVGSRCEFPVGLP

B1: Fab VH5-51_IGHD5-18*01>3_IGHJ4*01 G100K/G104T G24T/S28R/G35V (H:KT TRV) & V3-4_IGLJ1*01 M94R/S96M (L:RM) (Fab, V domains shown)
VH: EVQLVQSGAEVKKPGESLKISCKTSGYRFTSYWIVWVRQMPGKGLEWMGIIYPGDSDTRYSPSFQGQVTISADKSISTAYLQWSSLKASDTAMYYCARRKYSYTYDYFDYWGQGTLVTVSS
VL: QTVVTQEPSFSVSPGGTVTLTCGLSSGSVSTSYYPSWYQQTPGQAPRTLIYSTNTRSSGVPDRFSGSILGNKAALTITGAQADDESDYYCVLYRGMGISYVFGTGTKVTVL
As for B1, the ELISA absorbance at 450 nm amounted to 0.457 A450 in experiment [1]; 0.131 A450 in experiment [2]; 0.331 A450 in [3]; 0.232 A450 in experiment [4]; 0.13 A450 in experiment [5]; 0.148 A450 in experiment [6]. Moreover, the ELISA absorbance at 450 nm in experiment [7] came out at 0.186 A450.

B2: Fab VH5-51_IGHD5-18*01>3_IGHJ4*01 G100K/G104T G24T/S28R/G35V D109Q & V3-4_IGLJ1*01 (Fab, V domains shown)
VH: EVQLVQSGAEVKKPGESLKISCKTSGYRFTSYWIVWVRQMPGKGLEWMGIIYPGDSDTRYSPSFQGQVTISADKSISTAYLQWSSLKASDTAMYYCARRKYSYTYDYFQYWGQGTLVTVSS
VL: QTVVTQEPSFSVSPGGTVTLTCGLSSGSVSTSYYPSWYQQTPGQAPRTLIYSTNTRSSGVPDRFSGSILGNKAALTITGAQADDESDYYCVLYMGSGISYVFGTGTKVTVL
As for B2, the ELISA absorbance at 450 nm in experiment [8] was 0.3 A450; in experiment [9], 0.24 A450; in [10], 0.22 A450; in [11] it was 0.25 A450.

B3: Fab VH5-51_IGHD5-18*01>3_IGHJ4*01 G100K/G104T G24T/S28R/G35V Y107F & V3-4_IGLJ1*01 (Fab, V domains shown)
VH: EVQLVQSGAEVKKPGESLKISCKTSGYRFTSYWIVWVRQMPGKGLEWMGIIYPGDSDTRYSPSFQGQVTISADKSISTAYLQWSSLKASDTAMYYCARRKYSYTYDFFDYWGQGTLVTVSS
VL: QTVVTQEPSFSVSPGGTVTLTCGLSSGSVSTSYYPSWYQQTPGQAPRTLIYSTNTRSSGVPDRFSGSILGNKAALTITGAQADDESDYYCVLYMGSGISYVFGTGTKVTVL
With B3, the ELISA absorbance at 450 nm in experiment [8] was found to be 0.28 A450; in experiment [9], 0.21 A450; in experiment [10] it was 0.2 A450; in experiment [11], 0.24 A450.

B4: Fab VH5-51_IGHD5-18*01>3_IGHJ4*01 G100K & V3-4_IGLJ1*01 (Fab, V domains shown)
VH: EVQLVQSGAEVKKPGESLKISCKGSGYSFTSYWIGWVRQMPGKGLEWMGIIYPGDSDTRYSPSFQGQVTISADKSISTAYLQWSSLKASDTAMYYCARRKYSYGYDYFDYWGQGTLVTVSS
VL: QTVVTQEPSFSVSPGGTVTLTCGLSSGSVSTSYYPSWYQQTPGQAPRTLIYSTNTRSSGVPDRFSGSILGNKAALTITGAQADDESDYYCVLYMGSGISYVFGTGTKVTVL
As for B4, the ELISA absorbance at 450 nm in experiment [8] worked out at 0.2 A450; in experiment [9], 0.19 A450; in experiment [10], 0.18 A450; in experiment [11], 0.19 A450.

B5: Fab VH5-51_IGHD5-18*01>3_IGHJ4*01 G100K/G104T G24L/S28R/G35V & V3-4_IGLJ1*01 M94R/S96M (Fab, V domains shown)
VH: EVQLVQSGAEVKKPGESLKISCKLSGYRFTSYWIVWVRQMPGKGLEWMGIIYPGDSDTRYSPSFQGQVTISADKSISTAYLQWSSLKASDTAMYYCARRKYSYTYDYFDYWGQGTLVTVSS
VL: QTVVTQEPSFSVSPGGTVTLTCGLSSGSVSTSYYPSWYQQTPGQAPRTLIYSTNTRSSGVPDRFSGSILGNKAALTITGAQADDESDYYCVLYRGMGISYVFGTGTKVTVL
As to B5, the ELISA absorbance at 450 nm was found to be 0 A450 in experiment [12], 0.003 A450 in [13], 0 A450 in experiment [14] and 0 A450 in [15].

B6: Fab VH5-51_IGHD5-18*01>3_IGHJ4*01 G100K/G104T G24T/S28R/G35V Y105N & V3-4_IGLJ1*01 (Fab, V domains shown)
VH: EVQLVQSGAEVKKPGESLKISCKTSGYRFTSYWIVWVRQMPGKGLEWMGIIYPGDSDTRYSPSFQGQVTISADKSISTAYLQWSSLKASDTAMYYCARRKYSYTNDYFDYWGQGTLVTVSS
VL: QTVVTQEPSFSVSPGGTVTLTCGLSSGSVSTSYYPSWYQQTPGQAPRTLIYSTNTRSSGVPDRFSGSILGNKAALTITGAQADDESDYYCVLYMGSGISYVFGTGTKVTVL
As for B6, the ELISA absorbance at 450 nm in experiment [8] was 0.25 A450; in [9], 0.21 A450; in experiment [10], 0.19 A450; in experiment [11] it was 0.18 A450.

B7: Fab VH5-51_IGHD5-18*01>3_IGHJ4*01 G100K/G104T S28R & V3-4_IGLJ1*01 M94R/S96M (Fab, V domains shown)
VH: EVQLVQSGAEVKKPGESLKISCKGSGYRFTSYWIGWVRQMPGKGLEWMGIIYPGDSDTRYSPSFQGQVTISADKSISTAYLQWSSLKASDTAMYYCARRKYSYTYDYFDYWGQGTLVTVSS
VL: QTVVTQEPSFSVSPGGTVTLTCGLSSGSVSTSYYPSWYQQTPGQAPRTLIYSTNTRSSGVPDRFSGSILGNKAALTITGAQADDESDYYCVLYRGMGISYVFGTGTKVTVL
On to B7, for which the ELISA absorbance at 450 nm in experiment [12] was found to be 0 A450; in experiment [13], 0.011 A450; in experiment [14], 0.003 A450; in [15], 0.001 A450.

B8: Fab VH5-51_IGHD5-18*01>3_IGHJ4*01 G100K/G104T G24A/S28R/G35V & V3-4_IGLJ1*01 M94R/S96M (Fab, V domains shown)
VH: EVQLVQSGAEVKKPGESLKISCKASGYRFTSYWIVWVRQMPGKGLEWMGIIYPGDSDTRYSPSFQGQVTISADKSISTAYLQWSSLKASDTAMYYCARRKYSYTYDYFDYWGQGTLVTVSS
VL: QTVVTQEPSFSVSPGGTVTLTCGLSSGSVSTSYYPSWYQQTPGQAPRTLIYSTNTRSSGVPDRFSGSILGNKAALTITGAQADDESDYYCVLYRGMGISYVFGTGTKVTVL
For the molecule B8, the ELISA absorbance at 450 nm in [12] is 0 A450; in experiment [13] it was 0.006 A450; in experiment [14] it was 0 A450; in experiment [15] it was 0.034 A450.

B9: Fab VH5-51_IGHD5-18*01>3_IGHJ4*01 G104T & V3-4_IGLJ1*01 (Fab, V domains shown)
VH: EVQLVQSGAEVKKPGESLKISCKGSGYSFTSYWIGWVRQMPGKGLEWMGIIYPGDSDTRYSPSFQGQVTISADKSISTAYLQWSSLKASDTAMYYCARRGYSYTYDYFDYWGQGTLVTVSS
VL: QTVVTQEPSFSVSPGGTVTLTCGLSSGSVSTSYYPSWYQQTPGQAPRTLIYSTNTRSSGVPDRFSGSILGNKAALTITGAQADDESDYYCVLYMGSGISYVFGTGTKVTVL
For the molecule B9, the ELISA absorbance at 450 nm in experiment [8] came to 0.17 A450; in experiment [9], 0.19 A450; in experiment [10], 0.18 A450; in [11], 0.17 A450.

B10: Fab VH5-51_IGHD5-18*01>3_IGHJ4*01 G100K/G104T G24T/S28R/G35V Y105H & V3-4_IGLJ1*01 (Fab, V domains shown)
VH: EVQLVQSGAEVKKPGESLKISCKTSGYRFTSYWIVWVRQMPGKGLEWMGIIYPGDSDTRYSPSFQGQVTISADKSISTAYLQWSSLKASDTAMYYCARRKYSYTHDYFDYWGQGTLVTVSS
VL: QTVVTQEPSFSVSPGGTVTLTCGLSSGSVSTSYYPSWYQQTPGQAPRTLIYSTNTRSSGVPDRFSGSILGNKAALTITGAQADDESDYYCVLYMGSGISYVFGTGTKVTVL
B10: the ELISA absorbance at 450 nm came to 0.23 A450 in [8], 0.21 A450 in experiment [9], 0.19 A450 in [10] and 0.2 A450 in experiment [11].
